Data as given in WO2013125221A1.
Each block holds one binder with its values, some of them ahead of it. Where no end group is shown, it is not given here.

How the values were obtained:
[1] = target: Herceptin scFv antibody (His-tagged, self-prepared); experiment: peptide magnetic bead immunoprecipitation, SDS-PAGE / anti-His blot, band intensity semi-quantified
[2] = target: Herceptin scFv antibody (His-tagged, self-prepared); experiment: peptide magnetic bead immunoprecipitation, SDS-PAGE / anti-His blot, semi-quantitative

Herceptin scFv antibody recovery rate [1]: 30%
Herceptin scFv antibody recovery rate [2]: 23%
B1: code 4 peptide (peptide)
peptide: WSEYDIPTPQIP
modifications: also: biotinylated (site not given here)

Herceptin scFv antibody recovery rate [1]: 30%
B2: code 166 peptide (peptide)
peptide: FHRSHWYQTWVP
modifications: also: biotinylated (site not given here)
